Source: US20220168347A1 (published 2022)

Target: T1, gp100 (gp100-intron4) peptide on HLA-A*24:02 (human)
T1 peptide: VYFFLPDHL
Experiment: multimer staining

binding result: recognises
B1: A*24:02/gp100-intron4 TCR (TCR, V domains shown)
Valpha: KQEVTQIPAALSVPEGENLVLNCSFTDSAIYNLQWFRQDPGKGLTSLLLIQSSQREQTSGRLNASLDKSSGRSTLYIAASQPGDSATYLCAVATDSWGKLQFGAGTQVVVTP
Vbeta: AAGVIQSPRHLIKEKRETATLKCYPIPRHDTVYWYQQGPGQDPQFLISFYEKMQSDKGSIPDRFSAQQFSDYHSELNMSSLELGDSALYFCASSLLPEGTGRVSGYTFGSGTRLTVV
